Assay [1] has as its target septin complex (6His-Cdc12-Cdc3-Cdc10-Cdc11) (budding yeast, UniProt P32468 1-407; P32457 1-520; P25342 1-322; P32458 1-415). The experiment in a line: pull-down.
For the next assay, the target named is T1, Hof1-4E–3HA (budding yeast, UniProt Q05080 1-669, S313E | S421E | S533E | S563E).
T1 sequence (looked up): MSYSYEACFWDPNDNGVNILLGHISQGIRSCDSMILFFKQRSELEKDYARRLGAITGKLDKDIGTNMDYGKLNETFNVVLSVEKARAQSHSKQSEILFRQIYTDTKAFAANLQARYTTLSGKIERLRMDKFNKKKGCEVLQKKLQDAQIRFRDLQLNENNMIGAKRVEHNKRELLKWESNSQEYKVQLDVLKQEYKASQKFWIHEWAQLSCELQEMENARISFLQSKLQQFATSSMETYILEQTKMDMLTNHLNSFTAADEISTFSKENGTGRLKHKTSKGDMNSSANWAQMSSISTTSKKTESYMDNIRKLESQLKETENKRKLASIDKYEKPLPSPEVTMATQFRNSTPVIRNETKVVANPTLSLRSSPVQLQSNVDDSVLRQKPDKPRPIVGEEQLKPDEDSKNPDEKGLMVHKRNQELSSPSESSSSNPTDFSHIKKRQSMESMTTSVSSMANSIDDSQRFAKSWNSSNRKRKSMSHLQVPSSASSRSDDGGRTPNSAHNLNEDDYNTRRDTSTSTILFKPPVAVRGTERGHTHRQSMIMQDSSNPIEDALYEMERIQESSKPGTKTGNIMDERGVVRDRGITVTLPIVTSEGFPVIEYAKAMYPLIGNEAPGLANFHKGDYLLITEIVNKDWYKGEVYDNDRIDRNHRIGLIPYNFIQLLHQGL
The experiment in a line: co-IP.

Chain of septin complex (6His-Cdc12-Cdc3-Cdc10-Cdc11) (P32468 whole entry, chain 1 of 3): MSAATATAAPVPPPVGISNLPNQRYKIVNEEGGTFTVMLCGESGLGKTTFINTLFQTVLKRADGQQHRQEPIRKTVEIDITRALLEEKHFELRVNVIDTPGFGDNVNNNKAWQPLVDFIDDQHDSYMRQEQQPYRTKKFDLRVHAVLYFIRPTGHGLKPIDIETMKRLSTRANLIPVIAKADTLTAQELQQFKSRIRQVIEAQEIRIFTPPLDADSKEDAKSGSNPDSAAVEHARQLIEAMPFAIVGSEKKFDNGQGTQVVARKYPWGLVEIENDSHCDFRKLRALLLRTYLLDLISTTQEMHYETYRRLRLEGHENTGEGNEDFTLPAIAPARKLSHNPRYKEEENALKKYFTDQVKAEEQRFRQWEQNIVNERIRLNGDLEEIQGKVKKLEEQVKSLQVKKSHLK
Chain of septin complex (6His-Cdc12-Cdc3-Cdc10-Cdc11) (P32457 whole entry, chain 2 of 3): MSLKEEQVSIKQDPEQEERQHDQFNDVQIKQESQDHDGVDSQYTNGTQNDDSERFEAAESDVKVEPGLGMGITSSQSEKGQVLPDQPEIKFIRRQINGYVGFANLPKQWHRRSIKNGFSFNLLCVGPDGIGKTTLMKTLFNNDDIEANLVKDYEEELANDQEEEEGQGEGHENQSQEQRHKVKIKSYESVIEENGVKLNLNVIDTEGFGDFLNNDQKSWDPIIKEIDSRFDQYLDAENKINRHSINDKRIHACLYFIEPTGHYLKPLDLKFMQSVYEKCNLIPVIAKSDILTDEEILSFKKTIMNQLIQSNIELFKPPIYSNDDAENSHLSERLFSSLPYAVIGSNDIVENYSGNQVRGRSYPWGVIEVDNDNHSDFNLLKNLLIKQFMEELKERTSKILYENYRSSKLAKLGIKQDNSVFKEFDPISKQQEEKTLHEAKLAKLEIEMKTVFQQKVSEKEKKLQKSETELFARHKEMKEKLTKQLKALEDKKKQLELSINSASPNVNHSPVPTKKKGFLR
Chain of septin complex (6His-Cdc12-Cdc3-Cdc10-Cdc11) (P32458 whole entry, chain 4 of 3): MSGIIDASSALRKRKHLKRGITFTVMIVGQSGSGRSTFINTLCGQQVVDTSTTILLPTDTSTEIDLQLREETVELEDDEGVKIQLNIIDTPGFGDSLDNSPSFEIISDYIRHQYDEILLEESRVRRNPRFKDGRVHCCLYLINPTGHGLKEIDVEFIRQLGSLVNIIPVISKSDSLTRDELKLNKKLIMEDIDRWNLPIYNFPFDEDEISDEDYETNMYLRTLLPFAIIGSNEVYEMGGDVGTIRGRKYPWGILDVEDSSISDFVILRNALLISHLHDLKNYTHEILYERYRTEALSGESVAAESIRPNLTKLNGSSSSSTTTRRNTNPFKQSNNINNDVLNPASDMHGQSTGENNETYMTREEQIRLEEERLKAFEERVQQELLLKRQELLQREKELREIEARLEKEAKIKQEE

B1: GST-HOF1-SID (aa 200–355) (domain or fragment, budding yeast, UniProt Q05080 200-355, looked up)
chain: KFWIHEWAQLSCELQEMENARISFLQSKLQQFATSSMETYILEQTKMDMLTNHLNSFTAADEISTFSKENGTGRLKHKTSKGDMNSSANWAQMSSISTTSKKTESYMDNIRKLSSQLKETENKRKLASIDKYEKPLPSPEVTMATQFRNSTPVIRN
As to B1, in assay [1], the binding result is reported as “binds”.

B2: Cdc10-TAP (natural protein, budding yeast, UniProt P25342 1-322, looked up)
chain: MDPLSSVQPASYVGFDTITNQIEHRLLKKGFQFNIMVVGQSGLGKSTLINTLFASHLIDSATGDDISALPVTKTTEMKISTHTLVEDRVRLNINVIDTPGFGDFIDNSKAWEPIVKYIKEQHSQYLRKELTAQRERFITDTRVHAILYFLQPNGKELSRLDVEALKRLTEIANVIPVIGKSDTLTLDERTEFRELIQNEFEKYNFKIYPYDSEELTDEELELNRSVRSIIPFAVVGSENEIEINGETFRGRKTRWSAINVEDINQCDFVYLREFLIRTHLQDLIETTSYIHYEGFRARQLIALKENANSRSSAHMSSNAIQR
Take B2: in the assay with Hof1-4E–3HA, the “fold less coimmunoprecipitated than with Hof1-3HA” value turned out to be 2.5 fold.

The values are drawn from paper PMC3639042 (Molecular Biology of the Cell, 2013).
